# Test results taken from a protein production outcome set (Wang et al. 2014).
# Assay: label from the status in PepcDB records
# 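Also: failed if final PepcDB status was selected cloned or expressed and not failed if soluble or beyond.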
row,Sequence,protein production
1,MGPRRLLLVAACFSLCGPLLSARTRARRPESKATNATLDPRSFLLRNPNDKYEPFWEDEEKNESGLTEYRLVSINKSSPLQKQLPAFISEDASGYLTSSWLTLFVPSVYTGVFVVSLPLNIMAIVVFILKMKVKKPAVVYMLHLATADVLFVSVLPFKISYYFSGSDWQFGSELCRFVTAAFYCNMYASILLMTVISIDRFLAVVYPMQSLSWRTLGRASFTCLAIWALAIAGVVPLLLKEQTIQVPGLNITTCHDVLNETLLEGYYAYYFSAFSAVFFFVPLIISTVCYVSIIRCLSSSAVANRSKKSRALFLSAAVFCIFIICFGPTNVLLIAHYSFLSHTSTTEAAYFAYLLCVCVSSISCCIDPLIYYYASSECQRYVYSILCCKESSDPSSYNSSGQLMASKMDTCSSNLNNSIYKKLLT,failed
2,MGQFSILGFIALGGAIGACSRYLVSEFCVLLFGRGFPYGTLTVNVVGSFIMGLLIAAFENEILATEPWRQVIGLGFLGALTTFSTFSMDNVLLMQQGAFFKMGLNILLNVVLSISAAWIGFQLLMRS,failed
3,MGQKAKAQAPTTHPRPHTLSSQVAPALPRRPRHAAPESLRQARGEVMKAHLITYGCQMNEYDTHLVQSQLVSFGADIVESPDEADFVLVNTCAVRGKPVDKVRSLLGDLRKQKAQRSLVVGMMGCLAQLEEGQQIARKFEVDVLLGPGSLLDIGAALESNERFWGLQFKDELHDHIPPPPSGKLQAHLTIMRGCDHHCTYCIVPTTRGPQVSRHPDDILRELDMQLAAGVREVTLLGQNVNAYGVDQGAKLKGYPSFADLLRMVGASGIERVKFTTSHPMNFTEDVAAAIGETPAICEFVHLPVQSGSDRVLRRMAREYNREKYLTHIAQIKKHIPDVVLATDIIVGFPGETEEDFQDTLSLYDEVGYDSAYMFIYSPRPGTPSYKHFQDLPRELKTERLQRLIARQKDWSARKNAQKVGTVQQVLLRGDAHDAGFLEGHTRGNHPTVVPKAIGADGAGVYQVRIDHATPHMMYGHILGPDGQPLPEQPRFNPEAAAVGGALPML,failed
4,MGRAHVSTHELVAGRYRLFEVVQRETNRVCWSGEDATTGRPCLVTRIELPEGRAGEAARRAPGRVIRTGETMASLCPGRIAPVLDAVVADGMLWTVTEWVAGVPLGDLLDRRGAFGCARAARVGLELLAVLEAAHTHGVTHGELSPGQVFVREEGSVLVTGFGLAGATLAPRLTAPAYASPEQARDERIGPAADLWTLGAILYTMVEGRPPFRDRGRPEATLKGVDRLPLRTPVRAGPLAQAVTGLLRKNSRERPTRPVVRAALARALAEDPGTAVTEVTTGPGVRGGYAAARTAGRDRSRRTVAAGTALAVVTVAVAVLADLAVTDGLPGRGDGAAAGARQRPSASAAPPTGSAPAAASPGSPSSPAGRPSASASPSKPGVPAPAGFRRYDAPEGFSVALPEGWRRLDTASAPGGAYRVVFGASGDPRTLAVTYSRRAGADPVVVWRDDVEPGLARSDGYRRIGEIRSTTYRGRAAADMEWLVRDDGTRLRTFGRGFLLGGGRSFSLRWTTPAGDWDDSANERALAAFLGTFRDGAA,failed
5,MGRAMGDSFTFIFNPAADKGRAADKTALIERSLAHFEVASLETTRFAGHAAEIARAAAGEGSTLIACGGDGTLNEVVNAVAGQPVKVGVLPVGSANDFLKTFNPSAKEHEVRIRGFAGATSRKVDLGKV,failed
6,MGREFLDLFEQWAESYDQSVEGYDEQYRDVFAGYDRILSTVADKAGQVVLEFGIGTGNLTKKLLERGKTVYGIEPSAPMRKKAAEKLGERAVIMDGDFLQFPLPPEPIDTIASTYAFHHLTDAEKDEAIAKYSQLLHSGGKIVFADTAFRDKEAFRQTVEAARARGFHDLADDLEREYYTTLDVLASLFANHGFSVSFAQQNAFVWVMEAVKQTTLEHHHHHH,not failed
7,MGRKNSPSERERELQNLIAQYEAVKAKNESLYLDGDQLADIADLYASERKFKEAQEVITYGLGLHPGHTDLMVEQAYLFLDLNQPQKAKEVAELITDTYSSNVKLLLAELLLNEGKLDAADQMLDSIEEEEKNDLGILVDIVYLYTDLGYPEKGVQWLKRGAEMYKDDEDFLAATADCYGAAGAEYIEQAIVVFNKLIDKNPYNPAYWVGLAKCQFATKDFDKAIESCDFAIAADEEFGEAHIIKAHSLFHLENIEGAIVEYRKALKYKTLSPEFTYMFIGLAYTQQENWAEANESYSMALRAIEENGNGSSPLLSDIYSNKALCASRQGDSEEAHRLCRLAKELAPQDAEPYLLEGRIYMEEDNFDLARAEWALALRYAPEADTWMEIGNYSLEFRMLENARFCFEQVLEEDPEYPKICEQLAAVCLVLQDHEGFKKYNAMSGDSINLDSLRDTILEMGVDGEQMLRELDDFLKDEK,failed
8,MGRLSGKTILVTGAASGIGRAALDLFAREGASLVAVDREERLLAEAVAALEAEAIAVVADVSDPKAVEAVFAEALEEFGRLHGVAHFAGVAHSALSWNLPLEAWEKVLRVNLTGSFLVARKAGEVLEEGGSLVLTGSVAGLGAFGLAHYAAGKLGVVGLARTLALELARKGVRVNVLLPGLIQTPMTAGLPPWAWEQEVGASPLGRAGRPEEVAQAALFLLSEESAYITGQALYVDGGRSIVGPPGLPPGFGPKGGERHAHVL,not failed
9,MGRNDPLAAYNAKRDFARTAEPAGKRKSSATGNLFIVQKHDATRLHWDFRMEVDGVLKSWAVTRGPSPDPDDKRLAVQTEDHPLEYARFEGIIPEGEYGGGTVMLWDKGTWEPVEGKSAKDLEKGHLHFRLEGERMKGEWLLVRLKRRGNEKRDNWLLRKLDDAYAGQGDQLVERGLTSVLTGRTMAEIASDKAGSHSLKGKRGKAFASVMEEAGTHNRKVGKARGKAPSRARRNAPLPAFQPVQLATLVDTVPDGRQWLYEIKFDGYRALVAVRGTEVRVFTRSGLDWTEKFAPLARHLAGLKLPSCLIDGEIVAADADGNPDFSRLQAVLKRGHGEQGEGDALSFHAFDLLELEGEDLKPLPNVERKQKLAALLAGVSPPIHVADHIIGGGEKLLGALCGAGQEGIICKRADAAYAGKRTQNWLKVKCVARQEFIVVGFTRSSARRRPFASLLLAQREGKALVYKGKVGTGFDEDLLQDLATRFEALKVDEGPLDVPITEARGVTWLKPELVAEIAFAEFTAEGRVRHASFVGLREDKKAADVVPERPAPLVVQPEIVPISNRERVIFPESGQTKGDLADYYAAMAPAMLPFIANRPVSLVRCPQGRARHCFFQKHDSGSFGEHVHHVPIREKDGNEEEYLFVSDAAGILSCVQMGTIEFHGWCSLASDVEAPERMVIDLDPDEGLDFNDVKRAARDIRDRLSDLGLVSFAMLSGGKGVHVVVPLRPDHTWEAHASFAERFARALALAEPDRYVATMSKARRKGRIFIDWLRNRRGSTAVMPYSARARANAPVAVPIAWEELDDFANAHPFCIGDTAGLLKRSEGKSLRGWGMAQQSLPDV,failed
10,MGRTVVVLGGGISGLAASYHLSRAPCPPKVVLVESSERLGGWIRSVRGPNGAIFELGPRGIRPAGALGARTLLLVSELGLDSEVLPVRGDHPAAQNRFLYVGGALHALPTGLRGLLRPSPPFSKPLFWAGLRELTKPRGKEPDETVHSFAQRRLGPEVASLAMDSLCRGVFAGNSRELSIRSCFPSLFQAEQTHRSILLGLLLGAGRTPQPDSALIRQALAERWSQWSLRGGLEMLPQALETHLTSRGVSVLRGQPVCGLSLQAEGRWKVSLRDSSLEADHVISAIPASVLSELLPAEAAPLARALSAITAVSVAVVNLQYQGAHLPVQGFGHLVPSSEDPGVLGIVYDSVAFPEQDGSPPGLRVTVMLGGSWLQTLEASGCVLSQELFQQRAQEAAATQLGLKEMPSHCLVHLHKNCIPQYTLGHWQKLESARQFLTAHRLPLTLAGASYEGVAVNDCIESGRQAAVSVLGTEPNS,failed
11,MGSCMKWDYGEMEDFSVSASGLFITNEGNFQYSNATLSYYDPATCEVENEVFYRANGFKLGDVAQSMVIRDGIGWIVVNNSHVIFAIDINTFKEVGRITGFTSPRYIHFLSDEKAYVTQIWDYRIFIINPKTYEITGYIECPDMDMESGSTEQMVQYGKYVYVNCWSYQNRILKIDTETDKVVDELTIGIQPTSLVMDKYNKMWTITDGGYEGSPYGYEAPSLYRIDAETFTVEKQFKFKLGDWPSEVQLNGTRDTLYWINNDIWRMPVEADRVPVRPFLEFRDTKYYGLTVNPNNGEVYVADAIDYQQQGIVYRYSPQGKLIDEFYVGIIPGAFCWKLEHHHHHH,failed
12,MGSDVHVWKTWFITSSDRGFTWSTPAPLVNDDILPRGPVKNKLLLASNGAWIAPGSIESPERWRAFVDRSSDEGKHWSISFVPLEPDNAISGTNVALWDGIKKGRLWECCLENLLRWDGVIQPTLWESSPGHIHMLLRSTRGAIFRSDSIDYGATWSVARATSLPNNNSGIDLVSMQDGTLILALNPVNGNWGKRYPLSLIASQDNGESWLPLLDLESDHGEYSYPAIISEGGIVHITYTWNRKLEHHHHHH,not failed
